Substitutions are numbered along the chain they refer to. Names and notes keep the numbering of the source. Each block holds one binder with its values, some of them ahead of it.
Assays:
fibronectin [1] = assay: SPR; no binding up to 1.2 µM
Procedure: (§1) In some instances, binding affinities and specificity of anti-Aβ 3pE mAbs were measured by SPR performed using different instruments (Biacore T200, Biacore 8K or MASS-2 (Biacore, Inc.)) and anti-human or anti-mouse immunoglobulin biosensor surfaces. Anti-human or anti-mouse immunoglobulin antibodies were covalently coupled to the surface of CM4 or CM5 sensor chips (GE Healthcare) using manufacturer instructions for amine-coupling chemistry. Antibodies of interest were captured on the anti-human or mouse immunoglobulin sensor chip to a level of 300-400 RU, followed by injection of Aβ peptides or proteins (examples: human Aβ 3pE-40(SEQ ID NO:40), Aβ 3pE-28 (SEQ ID NO:42), scrambled Aβ 3pE-28 (SEQ ID NO:44), Aβ 1-28 (SEQ ID NO:43), mouse Aβ 3pE-28 (SEQ ID NO:46), or Fibronectin) at various concentrations in HEPES Buffered Saline containing 0.005% surfactant P20 (Tween™ 20). The surface was regenerated with 2 pulses injections of 30 μL of 10 mM Gly pH1.5 at 100 μL/min. Data reported is the difference in SPR signal between the flow cell containing the captured antibody and a reference cell without captured antibody. Additional instrumental contributions to the signal were removed by subtraction of the data from the blank injection from the reference-subtracted signal. When applicable data were analyzed by fitting association and dissociation phases at all concentrations (global fit) with a 1:1 binding model using the Biaevaluation software (Biacore, Inc.). Otherwise the data was evaluated qualitatively for YES/NO binding.

[2] = target: T1, 3pE Aβ peptide (antigen, form not stated); assay: SPR; antigen peptide not named
T1 construct: also called the peptide

fibronectin [3] = assay: SPR; KD for this target divided by KD for human Aβ 3pE-28
Procedure: as §1

[4] = target: T1, 3pE Aβ peptide (antigen, form not …); assay: SPR; antigen peptide not named; range over the HFA variants
human Aβ1-42 peptide = human Aβ1-42 peptide (human); assay: sandwich ELISA, BAMB31_1 coated, JRF/cAβ42/26-HRPO detection
Chain of human Aβ1-42 peptide (human) (peptide, as listed by the source): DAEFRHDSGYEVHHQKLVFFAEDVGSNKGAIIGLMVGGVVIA
Procedure: For the selected Aβ3pE monoclonal antibody BAMB31, the cross-reactivity with rodent Aβ3pE-40 (SEQ ID NO:45) and human Aβ1-40 (SEQ ID NO:41), Aβ1-42 (SEQ ID NO: 48), Aβ11pE-40(SEQ ID NO:49) and Aβ11pE-42 (SEQ ID NO:50) was evaluated using synthetic peptides. The combination BAMB31 +JRF/cAβ40/28-HRPO was used to investigate the cross-reactivity with Aβ1-40 (SEQ ID NO:41), Aβ11pE-40 (SEQID NO: 49) and rodent Aβ3pE-40 (SEQ ID NO:45), and the combination BAMB31+JRF/cAβ42/26-HRPO was used to investigate the cross-reactivity with Aβ1-42 (SEQ ID NO:48) and Aβ11pE-42 (SEQ ID NO:50). Concentrations up to 10,000 pg/mL were tested.
Materials and Methods: Standards were dissolved in dimethylsulphoxide (DMSO) (Sigma) at 0.1 mg/mL and stored at −80° C. For use in ELISA, peptides were further diluted in 0.1% casein in PBS down to 1 pg/mL. Ninety-six-well-plates (Maxisorb ELISA plates; NUNC) were coated overnight at 4° C. with monoclonal antibodies from BAMB31_1 at a concentration of 1.5 μg/mL in coating buffer. The next day, plates were washed and blocked with 0.1% casein in PBS for 1-4 hours at room temperature. Standards were incubated overnight at 4° C. together with HRPO-labeled secondary antibody (JRF/cAβ40/28-HRPO or JRF/cAβ42/26-HRPO). […]

4U-3pE-beta-Amyloid = assay: SPR; 4U-3pE-beta-Amyloid 0.6 to 4.5 nM

B2: BAMB631 (antibody, human IgG1, kappa, V domains shown)
VH: QVQLVQSGAEVKKPGASVKVSCKASGHVFTSYDMYWVRQAPGQSLEWMGYIDSDNGDTSYNQKFKGRVTLTVDTSTSTVYMELSSLRSEDTAVYYCAYYRYAMDYWGQGTLVTVSS
VL: DVVMTQSPLSLPVTLGQPASISCKSSQSLLDSRAKTYLTWLLQRPGQSPRRLIYLVSKLDSGVPDRFSGSGSGTDFTLKISRVEAEDVGVYYCWQGTHFPYTFGGGTKLEIKR
notes: BAMB31 HFA variant, human IgG1
Kd [2]: 0.018 nM

B3: BAMB611 (antibody, human IgG1, kappa, V domains shown)
VH: B2 VH with S44G, L70M
VL: B2 VL with R33N, A34G, L41F, L42Q
notes: as for B2
Kd [2]: 1.52 nM | Kd [4]: 1.52 nM

B4: BAMB630 (antibody, human IgG1, kappa, V domains shown)
VH: B2 VH with R38K, M48I, R67K
VL: B2 VL
notes: as for B2
Kd [2]: 0.0383 nM

B7: BAMB613 (antibody, human IgG1, kappa, V domains shown)
VH: B2 VH with S44G, M48I, R67K
VL: B2 VL with L42Q
notes: as for B2
Kd [2]: 0.0182 nM

B10: BAMB674 (antibody, human IgG1, kappa)
heavy: not shown
light: DVVMTQSPLSLPVTLGQPASISCKSSQSLLDSRAKTYLTWLQQRPGQSPRRLIYLVSKLDSGVPDRFSGSGSGTDFTLKISRVEAEDVGVYYCWQGTHFPYTFGGGTKLEIKRTVAAPSVFIFPPSDEQLKSGTASVVCLLNNFYPREAKVQWKVDNALQSGNSQESVTEQDSKDSTYSLSSTLTLSKADYEKHKVYACEVTHQGLSSPVTKSFNRGEC
notes: Lead HFA variant, wild type human IgG1; HCDR2 N55S; also called BAMAB674; BAMB31 HFA mAb, wild type IgG1
Kd (fibronectin [1]): > 1200 nM | Kd (4U-3pE-beta-Amyloid): 0.0401 nM | koff (4U-3pE-beta-Amyloid): 0.000136 s⁻¹ | kon (4U-3pE-beta-Amyloid): 3.39e+06 M⁻¹ s⁻¹ | Fold Selectivity (fibronectin [3]): > 47000 fold

B11: BAMB700 (antibody, human IgG1, kappa)
heavy: not shown
light: B10 light with G105Q
Kd (4U-3pE-beta-Amyloid): 0.0342 nM | koff (4U-3pE-beta-Amyloid): 9.86e-05 s⁻¹ | kon (4U-3pE-beta-Amyloid): 2.88e+06 M⁻¹ s⁻¹

B12: BAMB701 (antibody, human IgG1, kappa)
heavy: QVQLVQSGAEVKKPGASVKVSCKASGHVFTSYDMYWVRQAPGQGLEWIGYIDSDSGDTSYNQKFKGRVTLTVDTSTSTVYMELSSLRSEDTAVYYCAYYRYAMDYWGQGTLVTVSSASTKGPSVFPLAPSSKSTSGGTAALGCLVKDYFPEPVTVSWNSGALTSGVHTFPAVLQSSGLYSLSSVVTVPSSSLGTQTYICNVNHKPSNTKVDKKVEPKSCDKTHTCPPCPAPELLGGPSVFLFPPKPKDTLYITREPEVTCVVVDVSHEDPEVKFNWYVDGVEVHNAKTKPREEQYNSTYRVVSVLTVLHQDWLNGKEYKCKVSNKALPAPIEKTISKAKGQPREPQVYTLPPSREEMTKNQVSLTCLVKGFYPSDIAVEWESNGQPENNYKTTPPVLDSDGSFFLYSKLTVDKSRWQQGNVFSCSVMHEALHNHYTQKSLSLSPGK
light: B10 light with L109V
Kd (4U-3pE-beta-Amyloid): 0.0314 nM | koff (4U-3pE-beta-Amyloid): 9.47e-05 s⁻¹ | kon (4U-3pE-beta-Amyloid): 3.01e+06 M⁻¹ s⁻¹

Next, values leading:

Kd (fibronectin [1]): > 1200 nM | Kd [2]: 0.0139 nM | Fold Selectivity (fibronectin [3]): > 95000 fold
B1: BAMB246 (human IgG1 chimera) (antibody)
heavy: not shown
light: DVVMTQTPLTLSVTIGQPASISCKSSQSLLDSNGKTYLTWLLQRPGQSPKRLIYLVSKLDSGVPDRFTGSGAGTDFTLKIIRVEAEDLGVYYCWQGTHFPYTFGGGTKLEIKRTVAAPSVFIFPPSDEQLKSGTASVVCLLNNFYPREAKVQWKVDNALQSGNSQESVTEQDSKDSTYSLSSTLTLSKADYEKHKVYACEVTHQGLSSPVTKSFNRGEC
notes: Mouse variable regions on a human IgG1 constant region; also called BAMB246 (human chimeric parent)

Kd [2]: 0.0117 nM | Kd [4]: 0.0117 nM
B5: BAMB612 (antibody, human IgG1, kappa, V domains shown)
VH: B2 VH with A40S, S44G, M48I
VL: B2 VL with L42Q
notes: as for B2

Kd [2]: 0.016 nM
B6: BAMB614 (antibody, human IgG1, kappa, V domains shown)
VH: B2 VH with S44G, M48I
VL: B2 VL with L42Q
notes: as for B2

Kd [2]: 0.0183 nM
B8: BAMB623 (antibody, human IgG1, kappa, V domains shown)
VH: B2 VH with M48I, R67K, V68A, L70M
VL: B2 VL with L42Q
notes: as for B2

binding result (human Aβ1-42 peptide): no binding (tested: 10 ng/ml)
B9: BAMB31_1 (antibody, mouse IgG1, V domains shown)
VH: EIQLQQSGPELVKPGTSVKVSCKASGHVFTSYDMYWVKQSHGKSLEWIGYIDSDNGDTSYNQKFKGKATLTVDKSSSTAYMHLNSLTSEDSAVYYCAYYRYAMDYWGQGTSVTVSS
VL: not shown
notes: Hybridoma antibody

Kd (fibronectin [1]): > 1200 nM | Kd (4U-3pE-beta-Amyloid): 0.0443 nM | koff (4U-3pE-beta-Amyloid): 0.000166 s⁻¹ | kon (4U-3pE-beta-Amyloid): 3.74e+06 M⁻¹ s⁻¹ | Fold Selectivity (fibronectin [3]): > 46000 fold
B13: BAMB675 (antibody, human IgG1, kappa)
heavy: B12 heavy
light: B10 light
notes: Same V regions as BAMB674 on IgG1 with M37Y, S39T, T41E in the Fc (numbering on GenBank AEV43323); also called BAMB31 HFA mAb, +YTE IgG1
